Tests used:
[1] = system: HCT116; type: cell-based, human
Method: (§1) The following human tumor cell lines were assayed: A549 (lung carcinoma, ATCC CCL 185); HCT116 (colon carcinoma, ATCC CCL 247); SW480 (colon adenocarcinoma, ATCC CCL 228); MDA231 (breast adenocarcinoma, ATCC HTB 26); HeLa (cervical carcinoma, ATCC CCL 22); ME-180 (cervical carcinoma, ATCC HTB 33); T24 (bladder carcinoma. ATCC HTB 4); SK-N-AS (neuroblastoma, White et al., Proc. Natl. Acad. Sci., 92:5520-5524 (1995)). The cells were plated at 2.5×10^5 cells/ml in 96 well plates and incubated overnight. The cells were cultured in the presence of 2-fold dilutions of Apo-2 ligand (ranging from 100 ng/ml to 0.01 ng/ml). In some of the cultures, a chemotherapeuticagent was also added for 24 hours-cyclohexamide (“CHX”) (50 μg/ml; Sigma Chemicals), Doxorubicin (10-100 μg/ml; Pharmacia), or 5-FU (6 mg/ml; Roche). After 24 hours of incubation, the cells were stained with 0.5% crystal-violetin 20% methanol. Cell viability was determined by eluting the dye from the stained cells with 0.1M sodium citrate (0.1M citric acid in 50% methanol), and measuring absorbance at 540 nm.

[2] = system: MDA231; type: cell-based, human
Method: as §1

B1: Apo-2L: purified soluble His10-tagged human Apo-2 ligand, residues 114-281, from baculovirus-infected Sf9 cells (Example 3); used in Examples 4-14 (protein)
chain: MGHHHHHHHHHHSSGHIDDDDKHMVRERGPQRVAAHITGTRGRSNTLSSPNSKNEKALGRKINSWESSRSGHSFLSNLHLRNGELVIHEKGFYYIYSQTYFRFQEEIKENTKNDKQMVQYIYKYTSYPDPILLMKSARNSCWSKDAEYGLYSIYQGGIFELKENDRIFVSVTNEHLIDMDHEASFFGAFLVG
Apo-2L sensitivity ENHANCED BY 5-FU [1]: yes | Apo-2L sensitivity ENHANCED BY Dox ([1]; HCT116, Doxorubicin 10-100 μg/ml, 24 hours): yes | Apo-2L sensitivity ENHANCED BY CHX ([1]; HCT116, cyclohexamide 50 μg/ml, 24 hours): yes | Apo-2L SENSITIVITY ([1]; HCT116 colon carcinoma, p53 mut, 24 h): ++ (>70% death after 24 h with 100 ng/ml Apo-2L) | Apo-2L sensitivity ENHANCED BY 5-FU [2]: yes | Apo-2L sensitivity ENHANCED BY Dox ([2]; MDA231, Doxorubicin 10-100 μg/ml, 24 hours): yes | Apo-2L sensitivity ENHANCED BY CHX ([2]; MDA231, cyclohexamide 50 μg/ml, 24 hours): yes | Apo-2L SENSITIVITY ([2]; MDA231 breast carcinoma, p53 mut, 24 h): ++ (>70% death after 24 h with 100 ng/ml Apo-2L)
